From paper PMC4851429 (Structure (London, England : 1993), 2015) come the findings set out here.

B1: human FLRT3 LRR domain (residues K29-D357) (domain or fragment, UniProt Q9NZU0 29-357, looked up)
chain: KSCPSVCRCDAGFIYCNDRFLTSIPTGIPEDATTLYLQNNQINNAGIPSDLKNLLKVERIYLYHNSLDEFPTNLPKYVKELHLQENNIRTITYDSLSKIPYLEELHLDDNSVSAVSIEEGAFRDSNYLRLLFLSRNHLSTIPWGLPRTIEELRLDDNRISTISSPSLQGLTSLKRLVLDGNLLNNHGLGDKVFFNLVNLTELSLVRNSLTAAPVNLPGTNLRKLYLQDNHINRVPPNAFSYLRQLYRLDMSNNNLSNLPQGIFDDLDNITQLILRNNPWYCGCKMKWVRDWLQSLPVKVNVRGLMCQAPEKVRGMAIKDLNAELFDCKD
modifications: N-linked glycosylation observed at N226

The series “SEC” concerns the molecule itself. The experiment in a line: SEC. Background: SEC sorts molecules by how far they enter the pores of the column.
In series [1] the target is B1. The experiment in a line: flow cytometry on cells. (In general: Flow cytometry measures light scatter and fluorescence of single cells or particles in a stream.)
Series [2] deals with B1. The experiment in a line: BLI. (Biolayer interferometry detects binding as a change in optical thickness at a sensor tip.)

The term stoichiometry N denotes a count of units in the complex or per binding partner. For orientation: Kd means a measure of binding affinity in units of concentration. Lower therefore signals a tighter complex.

B1: in “SEC”, the “stoichiometry N” value stood at 2.

B2: biotinylated human LPHN3 olfactomedin domain (residues V132-G392) (domain or fragment, UniProt Q9HAR2 132-392, looked up)
chain: VFLCPGLLKGVYQSEHLFESDHQSGAWCKDPLQASDKIYYMPWTPYRTDTLTEYSSKDDFIAGRPTTTYKLPHRVDGTGFVVYDGALFFNKERTRNIVKFDLRTRIKSGEAIIANANYHDTSPYRWGGKSDIDLAVDENGLWVIYATEQNNGKIVISQLNPYTLRIEGTWDTAYDKRSASNAFMICGILYVVKSVYEDDDNEATGNKIDYIYNTDQSKDSLVDVPFPNSYQYIAAVDYNPRDNLLYVWNNYHVVKYSLDFG
modifications: biotin (biotinylated; residue not stated)
As for B2, the binding result in series [1] was “binds”.

B3: human LPHN3 olfactomedin domain (residues V132-G392) (domain or fragment, UniProt Q9HAR2 132-392, looked up)
chain: VFLCPGLLKGVYQSEHLFESDHQSGAWCKDPLQASDKIYYMPWTPYRTDTLTEYSSKDDFIAGRPTTTYKLPHRVDGTGFVVYDGALFFNKERTRNIVKFDLRTRIKSGEAIIANANYHDTSPYRWGGKSDIDLAVDENGLWVIYATEQNNGKIVISQLNPYTLRIEGTWDTAYDKRSASNAFMICGILYVVKSVYEDDDNEATGNKIDYIYNTDQSKDSLVDVPFPNSYQYIAAVDYNPRDNLLYVWNNYHVVKYSLDFG
Take B3: the Kd in series [2] was in the range of 220 to 260 nM.
